Experimental data as given in US11278600B2, “Human alpha-galactosidase variants” (Codexis, Inc., priority 2014, dated 2022).

Legend:
Format in all cases: biochemical
[1] = HTP-analysis of yeast culture supernatants, no challenge (MUGal hydrolysis); conditions: activity of the variant/activity of Rd3BB (SEQ ID NO: 13), yeast culture supernatant
Summary of the method: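 GLA variants were expressed in INVSc1 yeast grown in SD-Ura broth with glucose at 30° C., and culture supernatants were collected after 66-84 h. Supernatant was mixed with McIlvaine buffer pH 4.8 and MUGal (2 mM stock) in 50 mM citrate, 200 mM KCl, pH 4.6, incubated at 37° C. for 30-180 minutes, then quenched with sodium carbonate.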

[2] = HTP-analysis of supernatants pretreated with bovine serum (MUGal hydrolysis); conditions: activity of the variant/activity of Rd3BB (SEQ ID NO: 13), yeast culture supernatant
Summary of the method: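 Yeast INVSc1 culture supernatants containing secreted GLA variants were mixed with bovine serum (20:80) and held 1 h at 37° C. Serum-treated samples then reacted with MUGal (4 mM stock) in citrate/McIlvaine buffer (pH 4.3/4.8) for 180 min at 37° C., were quenched with sodium carbonate, and read by fluorescence (Ex 355, Em 448 nm).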

[3] = HTP-analysis of supernatants pretreated with base (MUGal hydrolysis); conditions: challenge at pH 8.2; activity of the variant/activity of Rd3BB (SEQ ID NO: 13); yeast culture supernatant
Summary of the method: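 Supernatants from INVSc1 yeast expressing GLA variants (SD-Ura, 66-84 h, 30° C) were mixed with McIlvaine buffer pH 7.0-8.2 or 200 mM sodium bicarbonate pH 9.1-9.7 and held 1-18 h at 37° C. Residual activity was then measured on MUGal at pH 4.8/4.3, 37° C, 30-180 min, by fluorescence (Ex 355/Em 448 nm).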

[4] = HTP-analysis of supernatants pretreated with acid (MUGal hydrolysis); conditions: challenge at pH 4.0; activity of the variant/activity of Rd3BB (SEQ ID NO: 13); yeast culture supernatant
Summary of the method: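 GLA variants were secreted from INVSc1 yeast grown 66-84 h at 30° C. in SD-Ura with 2% glucose; supernatants were mixed with McIlvaine buffer pH 3.3-4.3 and held at 37° C. for 1-3 h. Residual activity on MUGal at pH 4.8 was then measured by fluorescence.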

B1: 322 (protein)
chain: LDNGLARTPTMGWLHWERFMCNLDCQEEPDSCISEKLFMEMAELMVSEGWKDAGYEYLCIDDCWMAPQRDSEGRLQADPQRFPHGIRQLANYVHSKGLKFGIYADVGNKTCAGFPGSFGYYDIDAQTFADWGVDLLKFDGCYCDSLENLADGYKHMSLALNRTGRSIVYSCEWPLYMWPFQKPNYTEIRQYCNHWRNFADIDDSWASIKSILDWTSFNQETIVDVAGPGGWNDPDMLVIGNFGLSWNQQVTQMALWAIMAAPLFMSNDLRHISPQAKALLQDKDVIAINQDPLGKQGYQLRKGDNFEVWERPLSGLAWAVAIINRQEIGGPRSYTIAVASLGDGVACNPACFITQLLPVKRKLGFYNWTSRLKSHINPTGTVLLQLENTMQMSLKDLL
modifications: Synthetic Polypeptide sequence of Variant No. 322 of mature Human GLA
Relative Activity of GLA Variants After No Challenge (NC) [1]: + (+ = 0.5 to 1.5 relative activity over Rd3BB (SEQ ID NO: 13))
Relative Activity of GLA Variants After Challenge with Serum [2]: + (+ = 0.5 to 1.5 relative activity over Rd3BB (SEQ ID NO: 13))
Relative Activity of GLA Variants After Challenge at pH 8.2 [3]: ++ (++ = >1.5 to 2.5 relative activity over Rd3BB (SEQ ID NO: 13))
Relative Activity of GLA Variants After Challenge at pH 4.0 [4]: + (+ = 0.5 to 1.5 relative activity over Rd3BB (SEQ ID NO: 13))

B2: 324 (protein)
chain: LDNGLARTPTMGWLHWERFMCNSDCQEEPDSCISEKLFMEMAELMVSEGWKDAGYEYLCIDDCWMAPQRDSEGRLQADPQRFPHGIRQLANYVHSKGLKLGIYADVGNKTCAGFPGSFGYYDIDAQTFADWGVDLLKFDGCYCDSLENLADGYKHMSLALNRTGRSIVYSCEWPLYMWPFQKPNYTEIRQYCNHWRNFADIDDSWASIKSILDWTSFNQERIVDVAGPGGWNDPDMLVIGNFGLSWNQQVTQMALWAIMAAPLFMSNDLRHISPQAKALLQDKDVIAINQDPLGKQGYQLRQGDNFEVWERPLSGLAWAVAIINRQEIGGPRSYTIAVASLGKGVACNPACFITQLLPVKRKLGFYNWTSRLKSHINPTGTVLLQLENTMQMSLKDLL
modifications: Synthetic Polypeptide sequence of Variant No. 324 of mature Human GLA
Relative Activity of GLA Variants After No Challenge (NC) [1]: − (− = <0.5 relative activity to Rd3BB (SEQ ID NO: 13))
Relative Activity of GLA Variants After Challenge with Serum [2]: − (− = <0.5 relative activity to Rd3BB (SEQ ID NO: 13))
Relative Activity of GLA Variants After Challenge at pH 8.2 [3]: − (− = <0.5 relative activity to Rd3BB (SEQ ID NO: 13))
Relative Activity of GLA Variants After Challenge at pH 4.0 [4]: − (− = <0.5 relative activity to Rd3BB (SEQ ID NO: 13))

B3: 327 (protein)
chain: LDNGLARTPTMGWLHWERFMCNLDCQEEPDSCISEKLFMEMAERMVSEGWKDAGYEYLCIDDCWMAPQRDSEGRLQADPQRFPHGIRQLANYVHSKGLKLGIYADVGNKTCAGFPGSFGYYDIDAQTFADWGVDLLKFDGCYCDSLENLADGYKHMSLALNRTGRSIVYSCEWPLYMWPFQKPNYTEIRQYCNHWRNFADIDDSWASIKSILDWTSRNQERIVDVAGPGGWNDPDMLVIGNFGLSWDQQVTQMALWAIMAAPLFMSNDLRHISPQAKALLQDKDVIAINQDPLGKQGYQLRKGDNFEVWERPLSGDAWAVAIINRQEIGGPRSYTIAVASLGDGVACNPGCFITQLLPVKRQLGFYNWTSRLKSHINPTGTVLLQLENTMQMSLKDLL
modifications: Synthetic Polypeptide sequence of Variant No. 327 of mature Human GLA
Relative Activity of GLA Variants After No Challenge (NC) [1]: ++ (++ = >1.5 to 2.5 relative activity over Rd3BB (SEQ ID NO: 13))
Relative Activity of GLA Variants After Challenge with Serum [2]: +++ (+++ = >2.5 relative activity over Rd3BB (SEQ ID NO: 13))
Relative Activity of GLA Variants After Challenge at pH 8.2 [3]: +++ (+++ = >2.5 relative activity over Rd3BB (SEQ ID NO: 13))
Relative Activity of GLA Variants After Challenge at pH 4.0 [4]: +++ (+++ = >2.5 relative activity over Rd3BB (SEQ ID NO: 13))

B4: 325 (protein)
chain: LDNGLARTPTMGWLHWERFMCNLDCQEEPDSCISEKLFMEMAERMVSEGWKDAGYEYLCIDDCWMAPQRDSEGRLQADPQRFPHGIRQLANYVHSKGLKLGIYADVGNKTCAGFPGSFGYYDIDAQTFADWGVDLLKFDGCYCDSLENLADGYKHMSLALNRTGRSIVYSCEWPLYMWPFQKPNYTEIRQYCNHWRNFADIDDSWASIKSILDWTSRNQERIVDVAGPGGWNDPDMLVIGNFGLSWDQQVTQMALWAIMAAPLFMSNDLRHISPQAKALLQDKDVIAINQDPLGKQGYQLRQGDNFEVWERPLSGDAWAVAIINRQEIGGPRSYTIPVASLGGGVACNPACFITQLLPVKRQLGFYNWTSRLKSHINPTGTVLLQLENTMQMSLKDLL
modifications: Synthetic Polypeptide sequence of Variant No. 325 of mature Human GLA
Relative Activity of GLA Variants After No Challenge (NC) [1]: ++ (++ = >1.5 to 2.5 relative activity over Rd3BB (SEQ ID NO: 13))
Relative Activity of GLA Variants After Challenge with Serum [2]: +++ (+++ = >2.5 relative activity over Rd3BB (SEQ ID NO: 13))
Relative Activity of GLA Variants After Challenge at pH 8.2 [3]: +++ (+++ = >2.5 relative activity over Rd3BB (SEQ ID NO: 13))
Relative Activity of GLA Variants After Challenge at pH 4.0 [4]: +++ (+++ = >2.5 relative activity over Rd3BB (SEQ ID NO: 13))

B5: 323 (protein)
chain: LDNGLARTPTMGWLHWERFMCNLDCQEEPDSCISEKLFMEMAELMVSEGWKDAGYEYLCIDDCWMAPQRDSEGRLQADPQRFPHGIRQLANYVHSKGLKFGIYADVGNKTCAGFPGSFGYYDIDAQTFADWGVDLLKFDGCYCDSLENLADGYKHMSLAINRTGRSIVYSCEWPLYMWPFQKPNYTEIRQYCNHWRNFADIDDSWASIKSILDWTSFNQEKIVDVAGPGGWNDPDMLVIGNFGLSWNQQVTQMALWAIMAAPLFMSNDLRHISPQAKALLQDKDVIAINQDPLGKQGYQLRQGDNFEVWERPLSGLAWAVAVINRQEIGGPRSYTIAVASLGKGVACNPACFITQLLPVKRKLGFYNWTSRLKSHINPTGTVLLQLENTMQMSLKDLL
modifications: Synthetic Polypeptide sequence of Variant No. 323 of mature Human GLA
Relative Activity of GLA Variants After No Challenge (NC) [1]: − (− = <0.5 relative activity to Rd3BB (SEQ ID NO: 13))
Relative Activity of GLA Variants After Challenge with Serum [2]: + (+ = 0.5 to 1.5 relative activity over Rd3BB (SEQ ID NO: 13))
Relative Activity of GLA Variants After Challenge at pH 8.2 [3]: − (− = <0.5 relative activity to Rd3BB (SEQ ID NO: 13))
Relative Activity of GLA Variants After Challenge at pH 4.0 [4]: − (− = <0.5 relative activity to Rd3BB (SEQ ID NO: 13))

B6: 326 (protein)
chain: LDNGLARTPTMGWLHWERFMCNLDCQEEPDSCISEKLFMEMAERMVSEGWKDAGYEYLCIDDCWMAPQRDSEGRLQADPQRFPHGIRQLANYVHSKGLKLGIYADVGNKTCAGFPGSFGYYDIDAQTFADWGVDLLKFDGCYCDSLENLADGYKHMSLALNRTGRSIVYSCEWPLYMWPFQKPNYTEIRQYCNHWRNFADIDDSWASIKSILDWTSRNQERIVDVAGPGGWNDPDMLVIGNFGLSWDQQVTQMALWAIMAAPLFMSNDLRHISPQAKALLQDKDVIAINQDPLGKQGYQLRKGDNFEVWERPLSGDAWAVAIINRQEIGGPRSYTIPVASLGKGVACNPACFITQLLPVKRQLGFYNWTSRLKSHINPTGTVLLQLENTMQMSLKDLL
modifications: Synthetic Polypeptide sequence of Variant No. 326 of mature Human GLA
Relative Activity of GLA Variants After No Challenge (NC) [1]: ++ (++ = >1.5 to 2.5 relative activity over Rd3BB (SEQ ID NO: 13))
Relative Activity of GLA Variants After Challenge with Serum [2]: +++ (+++ = >2.5 relative activity over Rd3BB (SEQ ID NO: 13))
Relative Activity of GLA Variants After Challenge at pH 8.2 [3]: +++ (+++ = >2.5 relative activity over Rd3BB (SEQ ID NO: 13))
Relative Activity of GLA Variants After Challenge at pH 4.0 [4]: +++ (+++ = >2.5 relative activity over Rd3BB (SEQ ID NO: 13))
